For this data set, the system named is RSK2.
RSK2, sequence (chain, as listed by the source): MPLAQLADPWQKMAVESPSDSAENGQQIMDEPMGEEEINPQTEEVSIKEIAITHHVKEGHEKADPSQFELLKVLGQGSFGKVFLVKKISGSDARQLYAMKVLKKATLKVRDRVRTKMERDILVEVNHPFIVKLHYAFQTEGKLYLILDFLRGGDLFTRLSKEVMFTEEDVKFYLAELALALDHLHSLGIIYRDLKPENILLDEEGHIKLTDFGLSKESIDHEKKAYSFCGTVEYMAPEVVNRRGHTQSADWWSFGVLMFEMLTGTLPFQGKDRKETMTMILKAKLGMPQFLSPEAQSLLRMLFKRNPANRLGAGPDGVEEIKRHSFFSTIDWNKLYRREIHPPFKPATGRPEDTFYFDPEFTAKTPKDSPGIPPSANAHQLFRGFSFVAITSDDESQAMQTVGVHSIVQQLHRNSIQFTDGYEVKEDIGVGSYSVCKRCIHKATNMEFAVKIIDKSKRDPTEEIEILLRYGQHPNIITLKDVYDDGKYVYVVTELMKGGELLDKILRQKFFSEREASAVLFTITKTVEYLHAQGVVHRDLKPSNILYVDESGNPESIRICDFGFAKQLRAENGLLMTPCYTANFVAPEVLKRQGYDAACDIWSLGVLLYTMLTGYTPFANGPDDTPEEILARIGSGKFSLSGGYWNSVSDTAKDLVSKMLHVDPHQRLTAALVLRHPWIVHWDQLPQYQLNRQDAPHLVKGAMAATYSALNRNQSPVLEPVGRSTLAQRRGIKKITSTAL

Take WWP1: the RSK2 ubiquitination entry is recorded as “WWP1 can promote low levels of RSK2 ubiquitination”.

Source of the values: patent publication US20090318338.
